From paper PMC5080453, “Structural characterization of twisted gastrulation provides insights into opposing functions on the BMP signalling pathway” (Matrix Biology, 2016)

T1: ΔN-chordin (human chordin construct lacking the N-terminal part) (human, UniProt Q9H2X0 129-955)
T1 construct: chordin, human, ΔN-chordin: partially cleaved chordin fragment lacking the N-terminus and containing the C-terminal vWC domains; source: HEK 293-EBNA cells, as previously described [13]
T1 sequence (looked up): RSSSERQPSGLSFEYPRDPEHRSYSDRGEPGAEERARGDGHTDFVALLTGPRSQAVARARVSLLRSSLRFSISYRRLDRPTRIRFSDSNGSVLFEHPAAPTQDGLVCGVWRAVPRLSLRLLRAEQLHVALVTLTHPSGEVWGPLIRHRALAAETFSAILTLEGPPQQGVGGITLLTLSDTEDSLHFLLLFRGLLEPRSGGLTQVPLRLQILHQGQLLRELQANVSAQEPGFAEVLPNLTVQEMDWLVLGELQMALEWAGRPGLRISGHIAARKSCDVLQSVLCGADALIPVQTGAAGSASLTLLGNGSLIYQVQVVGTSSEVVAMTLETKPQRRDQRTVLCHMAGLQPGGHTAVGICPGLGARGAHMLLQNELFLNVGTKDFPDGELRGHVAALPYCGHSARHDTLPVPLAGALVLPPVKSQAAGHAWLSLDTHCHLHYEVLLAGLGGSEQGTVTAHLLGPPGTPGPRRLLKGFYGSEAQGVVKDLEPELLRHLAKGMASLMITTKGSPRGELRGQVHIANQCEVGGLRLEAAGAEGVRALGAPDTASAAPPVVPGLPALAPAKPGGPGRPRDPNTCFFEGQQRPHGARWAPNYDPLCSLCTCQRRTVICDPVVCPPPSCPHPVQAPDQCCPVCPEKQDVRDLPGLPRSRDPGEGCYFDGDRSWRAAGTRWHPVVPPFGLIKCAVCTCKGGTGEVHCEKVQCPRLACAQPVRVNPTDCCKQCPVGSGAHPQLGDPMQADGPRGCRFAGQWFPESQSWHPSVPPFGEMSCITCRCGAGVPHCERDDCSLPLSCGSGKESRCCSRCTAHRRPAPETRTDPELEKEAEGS

B1: human twisted gastrulation (Tsg), native (glycosylated) (natural protein, UniProt Q9GZX9 26-223, looked up)
chain: CNKALCASDVSKCLIQELCQCRPGEGNCSCCKECMLCLGALWDECCDCVGMCNPRNYSDTPPTSKSTVEELHEPIPSLFRALTEGDTQLNWNIVSFPVAEELSHHENLVSFLETVNQPHHQNVSVPSNNVHAPYSSDKEHMCTVVYFDDCMSIHQCKISCESMGASKYRWFHNACCECIGPECIDYGSKTVKCMNCMF
modifications: N-linked glycans (three predicted N-linked glycosylation sites)
notes: twisted gastrulation (Tsg), human, generated by PCR from image clone Q9GZX9; a thrombin cleavage site stands before the C-terminal His6 tag; For MST it was labelled with NT647 (Red-NHS kit); Monomer by MALS, AUC and SAXS; also called native Tsg
B2: chordin vWC2–3 (residues 701–860) (domain or fragment, human, UniProt Q9H2X0 701-860, looked up)
chain: DPNTCFFEGQQRPHGARWAPNYDPLCSLCTCQRRTVICDPVVCPPPSCPHPVQAPDQCCPVCPEKQDVRDLPGLPRSRDPGEGCYFDGDRSWRAAGTRWHPVVPPFGLIKCAVCTCKGGTGEVHCEKVQCPRLACAQPVRVNPTDCCKQCPVGSGAHPQL
notes: chordin, human, vWC2–3, residues 701–860, generated by PCR from full-length human chordin; thrombin cleavage site before the C-terminal His6 tag
B3: chordin vWC1 (residues 50–128) (domain or fragment, human, UniProt Q9H2X0 50-128, looked up)
chain: GCTFGGKVYALDETWHPDLGEPFGVMRCVLCACEAPQWGRRTRGPGRVSCKNIKPECPTPACGQPRQLPGHCCQTCPQE
notes: chordin, human, vWC1, residues 50–128, generated by PCR from full-length human chordin; thrombin cleavage site before the C-terminal His6 tag

What was measured:
Conditions in all cases: both partners purified
[1] = target: T1, ΔN-chordin (human chordin construct …); test: SPR; ProteOn XPR36, GLC chip; Tsg immobilised by amine coupling (300 RU for ΔN-chordin and vWC2–3, 800 RU for vWC1-4CHRD and vWC1); chordin constructs injected at increasing concentrations; 25 °C, 10 mM HEPES, 150 mM NaCl, 3 mM EDTA, 0.05% Tween-20, pH 7.4, 50 μl/min; ΔN-chordin fitted to a 1:1 Langmuir model, vWC2–3 by equilibrium analysis; triplicate
[2] = target: B1; test: as above
[3] = target: B1; test: MST; 15 nM NT647-labelled Tsg mixed with serial dilutions of vWC1 from 7 μM; 50 mM Tris, 150 mM NaCl, 10 mM MgCl2, 0.05% Tween-20, pH 7.4; Monolith NT.115Pico, 20% LED, 20% MST power; triplicate

Binder: B1
Kd [1]: 3.08 nM

Binder: B2
Kd [2]: 26.4 nM

Binder: B3
Kd [3]: 322 nM
